{
  "source": "patent US20140206846A1",
  "binders": {"B1": {"name": "VH6L (bispecific antibody, V domains shown)", "chain 1": "NIQKTQSPSSLSASVGDRVTITCRALWHISSYLAWYQQKPGKAPKLLIYAASHLHYGVPSRFSGSGSGTDFTLTISSLQPEDFATYYCQQYSGLPYTFGQGTKVEIK", "chain 2": "YYQLVESGGGLVQPGGSLRLSCAADGFLFSGYAMSWIRQAPGKGLEWIGQISGSGGSTVYNYNVLGRFTISRDNSKNTLYLQMNSLRAEDTAVYYCARDTGYFDHWGQGTLVTVSS"}},
  "key": {"[1]": {"target": "T1, human VEGF (human), P15692", "T1 chain": "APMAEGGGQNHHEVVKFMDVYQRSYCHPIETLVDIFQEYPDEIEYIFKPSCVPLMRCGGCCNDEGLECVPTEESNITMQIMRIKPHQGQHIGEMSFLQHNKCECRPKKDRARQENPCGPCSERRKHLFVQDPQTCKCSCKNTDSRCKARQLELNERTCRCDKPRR", "test": "Biacore", "conditions": "bispecific antibody; chains VL:VH; remark: other sources report otherwise"}, "[2]": {"target": "T1, human VEGF (human), P15692", "test": "Biacore SPR, Fab captured by anti-light chain antibody, VEGF as analyte", "conditions": "remark: other sources report otherwise"}},
  "data": [
    {"binder": "B1", "values": [
      {"measurement": "koff", "setting": "[1]", "value": 0.000738, "unit": "s⁻¹"},
      {"measurement": "Kd", "setting": "[2]", "value": 7.8, "unit": "nM"}
    ]}
  ]
}
